# Biological target: the molecule itself
# Test: SEC; Superdex-75 column, elution compared with marker proteins (BSA, ovalbumin, carbonic anhydrase, ribonuclease A)
protein,measurement,value
"TRIM36 PRYSPRY domain (domain or fragment, human, PRYSPRY domain of human TRIM36, with an additional C-terminal helix; theoretical MW of the dimer 52.4 kDa; Cloned into pNIC-CTH0; also called TRIM36 domain) TPPAPVFSFLFDEKCGYNNEHLLLNLKRDRVESRAGFNLLLAAERIQVGYYTSLDYIIGDTGITKGKHFWAFRVEPYSYLVKVGVASSDKLQEWLRSPRDAVSPRYEQDSGHDSGSEDACFDSSQPFTLVTIGMQKFFIPKSPTSSNEPENRVLPMPTSIGIFLDCDKGKVDFYDMDQMKCLYERQVDCSHTLYPAFALMGSGGIQLEEPITAKYLEYQEDM",stoichiometry N,2

# Source: paper PMC12355088, “Structural analysis of TRIM family PRYSPRY domains and its implications for E3-ligand design” (Journal of Structural Biology: X, 2025)
